# Measurements published in US20210024620A1.
# Legend:
# [1] = target: biotinylated human FcRn (human) (UniProt P55899); assay: Biacore, pH 6.0, apparent KD
# [2] = target: rat FcRn (rat) (UniProt P13599); assay: Biacore, pH 6.0, apparent KD
# [3] = target: biotinylated human FcRn (p51 subunit residues 24-297 with C-terminal Avi-tag; beta2-microglobulin residues 21-119) (human) (UniProt P55899); assay: Biacore SPR, pH 7.4, steady state
# [4] = target: biotinylated human FcRn (human) (UniProt P55899); assay: Biacore SPR, pH 7.4
# [5] = target: rat FcRn (rat) (UniProt P13599); assay: Biacore SPR, pH 7.4
# [6] = target: FcRn immobilised on the FcRn affinity column (biotinylated cynoFcRn in one experiment, biotinylated hFcRn in another); assay: FcRn affinity chromatography, linear pH gradient; species of the immobilised FcRn not given
# [7] = target: biotinylated human FcRn (human) (UniProt P55899); assay: Biacore, pH 6.0
# [8] = target: rat FcRn (rat) (UniProt P13599); assay: Biacore, pH 6.0
# [9] = target: Human CD16a (FcγRIIIa V158) with C-terminal HPC4 tag (human) (UniProt P08637); assay: Biacore, FcγRIIIa V158 captured, steady-state fit, apparent KD
# Human CD16a (FcγRIIIa V158) with C-terminal HPC4 tag (human), sequence (P08637 17-208 F176V): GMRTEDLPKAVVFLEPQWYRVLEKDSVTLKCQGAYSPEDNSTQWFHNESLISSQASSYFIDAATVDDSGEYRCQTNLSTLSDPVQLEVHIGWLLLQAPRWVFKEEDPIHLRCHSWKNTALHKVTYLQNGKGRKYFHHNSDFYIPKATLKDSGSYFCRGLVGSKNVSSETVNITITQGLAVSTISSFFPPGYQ
# [10] = target: rat FcRn (rat) (UniProt P13599); assay: Octet BLI, pH 6.0
# [11] = target: biotinylated human FcRn (human) (UniProt P55899); assay: Biacore SPR, pH 7.4, 1000 nM antibody
# [12] = target: rat FcRn (rat) (UniProt P13599); assay: Biacore SPR, pH 7.4, 1000 nM antibody
# [13] = target: biotinylated human FcRn (human) (UniProt P55899); assay: Biacore SPR, pH 7.4; remark: listed apart in the source
# [14] = target: biotinylated human FcRn (p51 subunit residues 24-297 with C-terminal Avi-tag; beta2-microglobulin residues 21-119) (human) (UniProt P55899); assay: Biacore; inverse ratio (RU at pH 7.4 over affinity at pH 6.0)
# [15] = target: Human CD16a (FcγRIIIa V158) with C-terminal HPC4 tag (human) (UniProt P08637); assay: Biacore SPR, FcγRIIIa-V158 captured, pH 7.4
# [16] = target: biotinylated human FcRn (human) (UniProt P55899); assay: Biacore, pH 7.4, steady state response
# [17] = target: rat FcRn (rat) (UniProt P13599); assay: Biacore, pH 7.4, steady state response
# [18] = target: biotinylated human FcRn (human) (UniProt P55899); assay: Biacore SPR, pH 6.0
# [19] = target: biotinylated human FcRn (p51 subunit residues 24-297 with C-terminal Avi-tag; beta2-microglobulin residues 21-119) (human) (UniProt P55899); assay: Biacore SPR, pH 6.0
# [20] = target: biotinylated human FcRn (human) (UniProt P55899); assay: Biacore SPR, pH 6.0; remark: listed apart in the source
# [21] = target: rat FcRn (rat) (UniProt P13599); assay: Biacore SPR, pH 6.0
# [22] = target: biotinylated human FcRn (p51 subunit residues 24-297 with C-terminal Avi-tag; beta2-microglobulin residues 21-119) (human) (UniProt P55899); assay: Biacore; affinity at pH 6.0 (M^-1) over steady state RU at pH 7.4
# [23] = target: Human CD16a (FcγRIIIa V158) with C-terminal HPC4 tag (human) (UniProt P08637); assay: Biacore SPR, FcγRIIIa
# [24] = target: rat FcRn (rat) (UniProt P13599); assay: Octet BLI screen, pH 6.0
# rat FcRn (rat), sequence (P13599 23-298 limits assumed, chain 1 of 2): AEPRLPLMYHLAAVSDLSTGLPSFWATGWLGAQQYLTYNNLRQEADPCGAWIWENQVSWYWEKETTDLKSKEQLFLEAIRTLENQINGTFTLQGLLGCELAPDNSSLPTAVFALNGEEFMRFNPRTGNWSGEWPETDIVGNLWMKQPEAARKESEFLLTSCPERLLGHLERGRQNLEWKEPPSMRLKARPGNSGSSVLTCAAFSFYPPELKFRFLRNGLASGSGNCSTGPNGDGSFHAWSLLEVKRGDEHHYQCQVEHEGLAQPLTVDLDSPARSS
# rat FcRn (rat), sequence (P07151 21-119 limits assumed, chain 2 of 2, further chain): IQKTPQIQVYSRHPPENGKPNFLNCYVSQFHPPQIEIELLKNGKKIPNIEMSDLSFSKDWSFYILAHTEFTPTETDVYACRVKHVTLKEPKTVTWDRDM
Kd [1] [nM],Kd [2] [nM],"Steady State Binding, pH 7.4 (RU) [3] [RU]",Steady State RU [4] [RU],Steady State RU [5] [RU],FcRn affinity column elution pH [6] [pH],koff [7] [s⁻¹],kon [7] [M⁻¹ s⁻¹],koff [8] [s⁻¹],kon [8] [M⁻¹ s⁻¹],Kd [9] [nM],koff [10] [s⁻¹],Steady State RU [11] [RU],Steady State RU [12] [RU],Steady State RU [13] [RU],FcγRIIIa V158 affinity fold change relative to WT [15] [fold],Steady State RU [16] [RU],Kd [21] [nM],koff [21] [s⁻¹],kon [21] [M⁻¹ s⁻¹],Substance,also measured
272,74,18.3,18.3,24.8,8.29,0.05,193000,0.0066,91000,369,0.00338,18.3,24.8,18.5,1.04,18.3,74,0.00658,90800,mAb1 LS (M428L/N434S) (antibody),Ratio (pH 6.0/pH 7.4) [14]: 4.97e-06; Steady State RU [17]: 24.8 RU; Kd [18]: 272 nM; koff [18]: 0.05 s⁻¹; kon [18]: 190000 M⁻¹ s⁻¹; Ka [19]: 3.68e+06 M⁻¹; koff [20]: 0.052 s⁻¹; kon [20]: 193000 M⁻¹ s⁻¹; Ratio (pH 6.0/pH 7.4) [22]: 201000
,23,,,66,8.46,,,0.0035,145000,,0.00133,,47,,1.41,,23,0.00346,145000,mAb1 N434Y (antibody),enhancement of FcγRIIIa binding vs WT [23]: 16 to 40%; fold slower off-rate vs WT [24]: > 2 fold
,26,,,61.5,,,,,,,,,54.9,,,,26,,,mAb1 N434F (antibody),enhancement of FcγRIIIa binding vs WT [23]: 16 to 40%
342,18,13.2,13.2,53.9,8.14,0.05,143000,0.0012,65000,1040,0.00066,13.2,53.9,13.1,0.52,13.2,18,0.00121,65200,mAb1 YTE (M252Y/S254T/T256E) (antibody),reduction in binding response vs wildtype [23]: 50%; Steady State RU [17]: 53.9 RU; Kd [18]: 342 nM; koff [18]: 0.047 s⁻¹; kon [18]: 140000 M⁻¹ s⁻¹; Ka [19]: 2.92e+06 M⁻¹; koff [20]: 0.045 s⁻¹; kon [20]: 143000 M⁻¹ s⁻¹; Ratio (pH 6.0/pH 7.4) [22]: 221000
